Test results reported in patent US20200079833A1 (AstraZeneca / MedImmune, published 2020).
Starred links: 1 amine or outer side, 2 acyl side, 3 side chain; linkers in the order of their positions; H or OH if unused. Non-standard residues stand in square brackets, D forms with d. Groups on a side chain read outwards from the residue. Primed or numbered codes have the meaning given here. No end group written: not given here. *: point of attachment. γGlu = O=C(O)[C@H](CCC(=O)[*:2])N[*:1]; Stearoyl = CCCCCCCCCCCCCCCCCC(=O)*; Palmitoyl = CCCCCCCCCCCCCCCC(=O)*; αMeF = C[C@](N)(Cc1ccccc1)C(=O)O; αMeK = C[C@](N)(CCCCN)C(=O)O; αMeS = C[C@](N)(CO)C(=O)O; PEG2′ = not defined here; Aib = CC(C)(N)C(=O)O

B1: SEQ ID NO 69 (peptide)
peptide: H[Aib]EGS[αMeF]TSDV[αMeS]S[αMeF]LEGEAAAEFIK([PEG2′-PEG2′-γGlu-Stearoyl])WVVEGG-NH2
B2: SEQ ID NO 67 (peptide)
peptide: H[Aib]EGS[αMeF]TSDV[αMeS]S[αMeF]LEGEAA[Aib]EFIK([PEG2′-PEG2′-γGlu-Stearoyl])WVVEGG-NH2
B3: SEQ ID NO 71 (peptide)
peptide: H[Aib]EGS[αMeF]TSDV[αMeS]S[αMeF]LEGEAA[αMeK]E[αMeF]IA[αMeF]VV[αMeK]K([γGlu-Palmitoyl])G-NH2
modifications: N-terminus assumed
SMILES: CCCCCCCCCCCCCCCC(=O)N[C@@H](CCC(=O)NCCCC[C@H](NC(=O)[C@](C)(CCCCN)NC(=O)[C@@H](NC(=O)[C@@H](NC(=O)[C@](C)(Cc1ccccc1)NC(=O)[C@H](C)NC(=O)[C@@H](NC(=O)[C@](C)(Cc1ccccc1)NC(=O)[C@H](CCC(=O)O)NC(=O)[C@](C)(CCCCN)NC(=O)[C@H](C)NC(=O)[C@H](C)NC(=O)[C@H](CCC(=O)O)NC(=O)CNC(=O)[C@H](CCC(=O)O)NC(=O)[C@H](CC(C)C)NC(=O)[C@](C)(Cc1ccccc1)NC(=O)[C@H](CO)NC(=O)[C@](C)(CO)NC(=O)[C@@H](NC(=O)[C@H](CC(=O)O)NC(=O)[C@H](CO)NC(=O)[C@@H](NC(=O)[C@](C)(Cc1ccccc1)NC(=O)[C@H](CO)NC(=O)CNC(=O)[C@H](CCC(=O)O)NC(=O)C(C)(C)NC(=O)[C@@H](N)Cc1c[nH]cn1)[C@@H](C)O)C(C)C)[C@@H](C)CC)C(C)C)C(C)C)C(=O)NCC(N)=O)C(=O)O
B4: SEQ ID NO 72 (peptide)
peptide: H[Aib]EGS[αMeF]TSDV[αMeS]S[αMeF]LEGEAA[αMeK]E[αMeF]IA[αMeF]VVK([γGlu-Palmitoyl])GG-NH2
modifications: N-terminus assumed
SMILES: CCCCCCCCCCCCCCCC(=O)N[C@@H](CCC(=O)NCCCC[C@H](NC(=O)[C@@H](NC(=O)[C@@H](NC(=O)[C@](C)(Cc1ccccc1)NC(=O)[C@H](C)NC(=O)[C@@H](NC(=O)[C@](C)(Cc1ccccc1)NC(=O)[C@H](CCC(=O)O)NC(=O)[C@](C)(CCCCN)NC(=O)[C@H](C)NC(=O)[C@H](C)NC(=O)[C@H](CCC(=O)O)NC(=O)CNC(=O)[C@H](CCC(=O)O)NC(=O)[C@H](CC(C)C)NC(=O)[C@](C)(Cc1ccccc1)NC(=O)[C@H](CO)NC(=O)[C@](C)(CO)NC(=O)[C@@H](NC(=O)[C@H](CC(=O)O)NC(=O)[C@H](CO)NC(=O)[C@@H](NC(=O)[C@](C)(Cc1ccccc1)NC(=O)[C@H](CO)NC(=O)CNC(=O)[C@H](CCC(=O)O)NC(=O)C(C)(C)NC(=O)[C@@H](N)Cc1c[nH]cn1)[C@@H](C)O)C(C)C)[C@@H](C)CC)C(C)C)C(C)C)C(=O)NCC(=O)NCC(N)=O)C(=O)O
B5: SEQ ID NO 9 (peptide)
peptide: H[Aib]EGS[αMeF]SSEVSS[αMeF]LEGEAA[αMeK]E[αMeF]IA[αMeF]VV[αMeK]GG-NH2
modifications: N-terminus assumed
SMILES: CC[C@H](C)[C@H](NC(=O)[C@](C)(Cc1ccccc1)NC(=O)[C@H](CCC(=O)O)NC(=O)[C@](C)(CCCCN)NC(=O)[C@H](C)NC(=O)[C@H](C)NC(=O)[C@H](CCC(=O)O)NC(=O)CNC(=O)[C@H](CCC(=O)O)NC(=O)[C@H](CC(C)C)NC(=O)[C@](C)(Cc1ccccc1)NC(=O)[C@H](CO)NC(=O)[C@H](CO)NC(=O)[C@@H](NC(=O)[C@H](CCC(=O)O)NC(=O)[C@H](CO)NC(=O)[C@H](CO)NC(=O)[C@](C)(Cc1ccccc1)NC(=O)[C@H](CO)NC(=O)CNC(=O)[C@H](CCC(=O)O)NC(=O)C(C)(C)NC(=O)[C@@H](N)Cc1c[nH]cn1)C(C)C)C(=O)N[C@@H](C)C(=O)N[C@@](C)(Cc1ccccc1)C(=O)N[C@H](C(=O)N[C@H](C(=O)N[C@@](C)(CCCCN)C(=O)NCC(=O)NCC(N)=O)C(C)C)C(C)C
B6: SEQ ID NO 68 (peptide)
peptide: H[Aib]EGS[αMeF]TSDV[αMeS]S[αMeF]LEGEAA[αMeK]EFIK([PEG2′-PEG2′-γGlu-Stearoyl])WVVEGG-NH2
B7: SEQ ID NO 66 (peptide)
peptide: H[Aib]EGS[αMeF]TSDV[αMeS]S[αMeF]LEGEAAEEFIK([PEG2′-PEG2′-γGlu-Stearoyl])WVVEGG-NH2
B8: SEQ ID NO 70 (peptide)
peptide: H[Aib]EGS[αMeF]TSDV[αMeS]S[αMeF]LEGEAA[αMeK]E[αMeF]IA[αMeF]VV[αMeK]GK([γGlu-Palmitoyl])-NH2
modifications: N-terminus assumed
SMILES: CCCCCCCCCCCCCCCC(=O)N[C@@H](CCC(=O)NCCCC[C@H](NC(=O)CNC(=O)[C@](C)(CCCCN)NC(=O)[C@@H](NC(=O)[C@@H](NC(=O)[C@](C)(Cc1ccccc1)NC(=O)[C@H](C)NC(=O)[C@@H](NC(=O)[C@](C)(Cc1ccccc1)NC(=O)[C@H](CCC(=O)O)NC(=O)[C@](C)(CCCCN)NC(=O)[C@H](C)NC(=O)[C@H](C)NC(=O)[C@H](CCC(=O)O)NC(=O)CNC(=O)[C@H](CCC(=O)O)NC(=O)[C@H](CC(C)C)NC(=O)[C@](C)(Cc1ccccc1)NC(=O)[C@H](CO)NC(=O)[C@](C)(CO)NC(=O)[C@@H](NC(=O)[C@H](CC(=O)O)NC(=O)[C@H](CO)NC(=O)[C@@H](NC(=O)[C@](C)(Cc1ccccc1)NC(=O)[C@H](CO)NC(=O)CNC(=O)[C@H](CCC(=O)O)NC(=O)C(C)(C)NC(=O)[C@@H](N)Cc1c[nH]cn1)[C@@H](C)O)C(C)C)[C@@H](C)CC)C(C)C)C(C)C)C(N)=O)C(=O)O
B9: SEQ ID NO 65 (peptide)
peptide: H[Aib]EGS[αMeF]TSDV[αMeS]S[αMeF]LEGEAAKEFIK([PEG2′-PEG2′-γGlu-Stearoyl])WVVEGG-NH2

Tests used:
Test in all cases: cell-based or functional assay
[1] = target: GLP-1 receptor (human, UniProt P43220 24-463)
[2] = target: glucagon receptor (human, UniProt P47871 26-477)
[3] = target: T1, glucose-dependent insulinotropic peptide (gastric inhibitory polypeptide) receptor (human, UniProt P48546 22-466)
T1 sequence (looked up): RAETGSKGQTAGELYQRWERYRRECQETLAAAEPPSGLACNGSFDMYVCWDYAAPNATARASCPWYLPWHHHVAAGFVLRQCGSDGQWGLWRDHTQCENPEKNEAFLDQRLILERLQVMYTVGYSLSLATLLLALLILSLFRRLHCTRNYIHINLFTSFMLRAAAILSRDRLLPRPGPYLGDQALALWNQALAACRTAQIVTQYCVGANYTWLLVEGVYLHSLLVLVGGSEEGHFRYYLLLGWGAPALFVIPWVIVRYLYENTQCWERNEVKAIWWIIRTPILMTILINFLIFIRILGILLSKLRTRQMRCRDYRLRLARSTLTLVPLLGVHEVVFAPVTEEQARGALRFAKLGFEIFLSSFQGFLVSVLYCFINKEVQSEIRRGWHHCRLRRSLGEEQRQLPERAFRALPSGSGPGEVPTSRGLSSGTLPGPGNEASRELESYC

Chain of glucagon receptor (P47871 26-477): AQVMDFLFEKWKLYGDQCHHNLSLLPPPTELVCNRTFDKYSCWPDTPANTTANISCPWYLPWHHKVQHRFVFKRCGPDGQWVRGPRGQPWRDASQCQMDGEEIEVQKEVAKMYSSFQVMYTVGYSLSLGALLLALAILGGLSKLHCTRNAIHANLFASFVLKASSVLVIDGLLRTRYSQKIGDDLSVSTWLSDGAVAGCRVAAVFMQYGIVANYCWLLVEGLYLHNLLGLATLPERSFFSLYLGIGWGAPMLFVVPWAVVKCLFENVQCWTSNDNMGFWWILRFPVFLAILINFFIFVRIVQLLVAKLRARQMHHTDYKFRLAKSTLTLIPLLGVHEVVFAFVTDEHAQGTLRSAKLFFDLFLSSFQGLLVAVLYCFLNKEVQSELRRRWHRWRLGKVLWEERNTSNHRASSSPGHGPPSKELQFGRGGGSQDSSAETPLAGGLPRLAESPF

Binder | Primary assay EC50 (cAMP), Mean pM GLP-1R [1] | Primary assay EC50 (cAMP), n1 [1] | Primary assay EC50 (cAMP), n2 [1] | Primary assay EC50 (cAMP), n1 [2] | Primary assay EC50 (cAMP), n2 [2] | Primary assay EC50 (cAMP), n1 [3] | Primary assay EC50 (cAMP), n2 [3]
B1 | 53 pM | 0.0661 nM | 0.0399 nM | 25.5 nM | 25.5 nM | 25.5 nM | 25.5 nM
B2 | 60.1 pM | 0.0721 nM | 0.048 nM | 25.4 nM | 25.4 nM | 25.4 nM | 25.4 nM
B3 | 7.1 pM | 0.0062 nM | 0.008 nM | 27 nM | 27 nM | 27 nM | 27 nM
B4 | 49 pM | 0.046 nM | 0.052 nM | 28 nM | 28 nM | 28 nM | 28 nM
B5 | 1200 pM | 1.2 nM | 1.2 nM | 29 nM | 29 nM | 29 nM | 29 nM
B6 | 18.8 pM | 0.0221 nM | 0.0155 nM | 25 nM | 25 nM | 25 nM | 25 nM
B7 | 150 pM | 0.203 nM | 0.0979 nM | 25.1 nM | 25.1 nM | 25.1 nM | 25.1 nM
B8 | 83 pM | 0.074 nM | 0.092 nM | 27 nM | 27 nM | 27 nM | 27 nM
B9 | 16.9 pM | 0.0197 nM | 0.014 nM | 25.1 nM | 25.1 nM | 25.1 nM | 25.1 nM
